Tests used:
[1] = test system: PIN-dCas9 deltaHNH del775-909 (Streptococcus pyogenes); experiment: cell_activity; conditions: COSM6, Northern blot
[2] = test system: PIN-XTEN-dCas9-2xNLS (Streptococcus pyogenes); experiment: cell_activity; conditions: no PAMmer, Northern dot blot; full-length Cas9 gave >95% loss in FIG. 8C

CUG repeat-targeting sgRNA ; CUG repeat RNA
activity [1]: > 95 % RNA loss | activity (% RNA remaining) [2]: 35
